In the Human Domainome abundance scans (Beltran et al. 2025):
± gives the uncertainty stated by the source.

B1: SWI/SNF complex subunit SMARCC2, residues 599 to 641; numbered along this chain, Q8TAQ2 (parent)
chain: REWTEQETLLLLEALEMYKDDWNKVSEHVGSRTQDECILHFLR

Variants of: B1
Assay: abundance fitness (aPCA) (normalised: wild type 0, dead -1); higher = more abundant; growth selection in yeast, the domain comes from the species named
Settings: Homo sapiens

| Variant | abundance fitness |
| --- | --- |
| REWTEQETLLLLEALEMCKDDWNKVSEHVGSRTQDECILHFLR [Y18C] | -0.501 ± 0.11 |
| REWTEQETLLLLEALEMGKDDWNKVSEHVGSRTQDECILHFLR [Y18G] | -0.163 ± 0.073 |
| REWTEQETLLLLEALEMTKDDWNKVSEHVGSRTQDECILHFLR [Y18T] | -0.383 ± 0.067 |
| REWTEQETLLLLEALEMMKDDWNKVSEHVGSRTQDECILHFLR [Y18M] | -0.48 ± 0.15 |
| REWTEQETLLLLEALEMYPDDWNKVSEHVGSRTQDECILHFLR [K19P] | -0.052 ± 0.074 |
| REWTEQETLLLLEALEMYVDDWNKVSEHVGSRTQDECILHFLR [K19V] | -0.256 ± 0.058 |
| REWTEQETLLLLEALEMYSDDWNKVSEHVGSRTQDECILHFLR [K19S] | -0.287 ± 0.065 |
| REWTEQETLLLLEALEMYKDDWNPVSEHVGSRTQDECILHFLR [K24P] | -0.524 ± 0.092 |
| REWTEQETLLLLEALEMYKDDWNEVSEHVGSRTQDECILHFLR [K24E] | 0.154 ± 0.098 |
| REWTEQETLLLLEALEMYKDDWNQVSEHVGSRTQDECILHFLR [K24Q] | 0.046 ± 0.086 |
| REWTVQETLLLLEALEMYKDDWNKVSEHVGSRTQDECILHFLR [E5V] | -0.189 ± 0.063 |
| REWTMQETLLLLEALEMYKDDWNKVSEHVGSRTQDECILHFLR [E5M] | -0.026 ± 0.16 |
| REWTPQETLLLLEALEMYKDDWNKVSEHVGSRTQDECILHFLR [E5P] | -0.39 ± 0.079 |
| REWTFQETLLLLEALEMYKDDWNKVSEHVGSRTQDECILHFLR [E5F] | -0.347 ± 0.13 |
| REWTQQETLLLLEALEMYKDDWNKVSEHVGSRTQDECILHFLR [E5Q] | 0.164 ± 0.24 |
| REWTEQETLLLLEALEMYKDTWNKVSEHVGSRTQDECILHFLR [D21T] | -0.336 ± 0.15 |
| REWTEQETLLLLEALEMYKDRWNKVSEHVGSRTQDECILHFLR [D21R] | -0.192 ± 0.077 |
| REWTEQETLLILEALEMYKDDWNKVSEHVGSRTQDECILHFLR [L11I] | -0.564 ± 0.28 |
| REWTEQETLLMLEALEMYKDDWNKVSEHVGSRTQDECILHFLR [L11M] | -0.357 ± 0.17 |
| REWTEQETLLLLEALEMYKDDWNKCSEHVGSRTQDECILHFLR [V25C] | 0.316 ± 0.12 |

| Variant | abundance fitness |
| --- | --- |
| REWTEQETLLLLEALEMYKDDWNKFSEHVGSRTQDECILHFLR [V25F] | -0.349 ± 0.17 |
| REWTEQETLLLLEALEMYKDDWNKVSEHVGSRTQDECILHFMR [L42M] | 0.167 ± 0.13 |
| REWTEQETLLLLEALEMYKDDWNKVSEHVGSRTQDECILHFHR [L42H] | 0.615 ± 0.16 |
| REWTEQETLLLLEALEMYKDDWNKVSEHVGSRTQDECILHFWR [L42W] | 0.049 ± 0.14 |
| REWTEQETLLLLEALEMYKDDWNKVSEHVGSRTQDECILHFFR [L42F] | 0.139 ± 0.067 |
| RESTEQETLLLLEALEMYKDDWNKVSEHVGSRTQDECILHFLR [W3S] | -0.317 ± 0.1 |
| REETEQETLLLLEALEMYKDDWNKVSEHVGSRTQDECILHFLR [W3E] | -0.431 ± 0.16 |
| RETTEQETLLLLEALEMYKDDWNKVSEHVGSRTQDECILHFLR [W3T] | -0.202 ± 0.15 |
| REWTEQETLLLLEALEMYKDDWNKVSEHVGSRTQDMCILHFLR [E36M] | -0.897 ± 0.23 |
| REWTEQETLLLLEALEMYKDDWNKVSEHVGSRTQDFCILHFLR [E36F] | -0.523 ± 0.24 |
| REWTEQETLLLLEALEYYKDDWNKVSEHVGSRTQDECILHFLR [M17Y] | -0.084 ± 0.11 |
| REWTEQETLLLLEALEGYKDDWNKVSEHVGSRTQDECILHFLR [M17G] | -0.154 ± 0.072 |
| REWTEQETLLLLEALEMYKDDWNKVSEHVGSRTQDECINHFLR [L39N] | 0.024 ± 0.12 |
| REWTEQETLLLLEALEMYKDDWNKVSEHVGSRTQDECIWHFLR [L39W] | -0.29 ± 0.34 |
| REWTEQETLLLLEALEMYKDDWNKVSEHVGSRTQDECIVHFLR [L39V] | -0.009 ± 0.075 |
| REWTEQETLLLLEALEMYKDDWNKVSEHVGSRTQDECIHHFLR [L39H] | 0.16 ± 0.1 |
| REWTEQETLLLLQALEMYKDDWNKVSEHVGSRTQDECILHFLR [E13Q] | -0.34 ± 0.093 |
| REWTEQETLLLLHALEMYKDDWNKVSEHVGSRTQDECILHFLR [E13H] | -0.264 ± 0.17 |
| REWTEQETLLLLGALEMYKDDWNKVSEHVGSRTQDECILHFLR [E13G] | -0.215 ± 0.074 |
| REWTEQETLLLLEALEMYKDDWNKVSEHVLSRTQDECILHFLR [G30L] | -0.546 ± 0.076 |

| Variant | abundance fitness |
| --- | --- |
| REWTEAETLLLLEALEMYKDDWNKVSEHVGSRTQDECILHFLR [Q6A] | 0.117 ± 0.074 |
| REWTEQETELLLEALEMYKDDWNKVSEHVGSRTQDECILHFLR [L9E] | -0.016 ± 0.1 |
| REWTEQETPLLLEALEMYKDDWNKVSEHVGSRTQDECILHFLR [L9P] | -0.307 ± 0.072 |
| REWTEQETDLLLEALEMYKDDWNKVSEHVGSRTQDECILHFLR [L9D] | -0.093 ± 0.09 |
| REWTEQETLLLLEALEMYKDDWNKVSEHQGSRTQDECILHFLR [V29Q] | -0.548 ± 0.17 |
| REWTEQETLLLLEALEMYKDDWNKVSEHMGSRTQDECILHFLR [V29M] | 0.092 ± 0.16 |
| REWTEQETLLLLEALEMYKDDWNKVSEHKGSRTQDECILHFLR [V29K] | -0.53 ± 0.26 |
| REWTEQETLLLLEALEMYKDDWNKVSEHGGSRTQDECILHFLR [V29G] | -0.835 ± 0.27 |
| REWTEQETLLLLEALEMYKDDWNKVSEHTGSRTQDECILHFLR [V29T] | -0.297 ± 0.3 |
| REWTEQETLLLLEALEMYKDDWNKVSEHPGSRTQDECILHFLR [V29P] | -0.865 ± 0.11 |
| DEWTEQETLLLLEALEMYKDDWNKVSEHVGSRTQDECILHFLR [R1D] | 0.232 ± 0.092 |
| REWTEQETLLLLEALEMYKDDWNKVSEHVGSRTQDECTLHFLR [I38T] | 0.26 ± 0.074 |
| REWTEQETLLLLEALEMYKDDWNKVSEHVGSRTQDECGLHFLR [I38G] | 0.401 ± 0.11 |
| REWTEQETLLLLEALEMYKDDWNKVSEHVGSRTQDECPLHFLR [I38P] | -0.367 ± 0.14 |
| REWTEQETLLLLEALEMYKDDWNKVSEHVGSRTQDECYLHFLR [I38Y] | 0.077 ± 0.092 |
| REWTEQETLLLLEALEMYKDDWNKVSEHVGSRTQDEEILHFLR [C37E] | -0.598 ± 0.44 |
| REWTEQETLLLLEALEMYKDDWNKVSEHVGSRTQDEQILHFLR [C37Q] | -0.2 ± 0.2 |
| REWTEQETLLLLEALEMYKDDWVKVSEHVGSRTQDECILHFLR [N23V] | 0.059 ± 0.067 |
| REWTEQETLLLLEALEMYKDDWIKVSEHVGSRTQDECILHFLR [N23I] | -0.121 ± 0.14 |
